In patent publication US20240066131A1 (Protagonist Therapeutics, Inc., priority 2020, published 2024):
Starred links: 1 amine or outer side, 2 acyl side, 3 side chain; linkers in the order of their positions; H or OH if unused. Positions of bridges follow the written chain, without caps; N, C: chain ends. Non-standard residues stand in square brackets, D forms with d. Groups on a side chain read outwards from the residue. *: point of attachment. Ala(1H-tetrazol-5-yl) = N[C@@H](Cc1nnn[nH]1)C(=O)O; PEG11 = NCCOCCOCCOCCOCCOCCOCCOCCOCCOCCOCCOCCC(=O)O; C18 diacid = O=C(O)CCCCCCCCCCCCCCCCC(=O)*; Dip = N[C@H](C(=O)O)C(c1ccccc1)c1ccccc1; γGlu = O=C(O)[C@H](CCC(=O)[*:2])N[*:1]; His(τ-Me) = Cn1cnc(C[C@H](N)C(=O)O)c1; Palmitoyl = CCCCCCCCCCCCCCCC(=O)*; β3hF = N[C@H](CC(=O)O)Cc1ccccc1; NMeK = CN[C@@H](CCCCN)C(=O)O; Isovaleryl = CC(C)CC(=O)*; Orn = NCCC[C@H](N)C(=O)O; Dab = NCC[C@H](N)C(=O)O; Dap = NC[C@H](N)C(=O)O; AEEA = NCCOCCOCC(=O)O; Ahx = NCCCCCC(=O)O

T1: human ferroportin (SLC40A1) fused in frame with GFP, stably expressed in HEK293 cells (human, UniProt Q9NP59 1-571)
T1 sequence (looked up): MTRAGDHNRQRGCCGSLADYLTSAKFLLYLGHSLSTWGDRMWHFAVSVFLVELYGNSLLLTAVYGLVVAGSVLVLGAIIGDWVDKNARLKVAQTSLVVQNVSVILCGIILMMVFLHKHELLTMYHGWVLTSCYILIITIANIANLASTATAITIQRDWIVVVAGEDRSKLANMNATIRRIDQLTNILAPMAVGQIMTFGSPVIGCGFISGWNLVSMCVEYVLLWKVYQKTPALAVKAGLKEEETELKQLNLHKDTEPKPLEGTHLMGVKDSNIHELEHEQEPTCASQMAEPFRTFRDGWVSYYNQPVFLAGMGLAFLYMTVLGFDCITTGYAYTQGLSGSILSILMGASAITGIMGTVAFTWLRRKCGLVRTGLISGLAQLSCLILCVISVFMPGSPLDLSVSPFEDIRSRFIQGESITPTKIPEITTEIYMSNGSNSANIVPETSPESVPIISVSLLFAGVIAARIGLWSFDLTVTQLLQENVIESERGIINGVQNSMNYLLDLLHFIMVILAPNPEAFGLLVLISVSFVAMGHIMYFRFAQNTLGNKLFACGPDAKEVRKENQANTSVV

T2: ferroportin endogenously expressed on T47D cells (HTB 133, ATCC) (human, UniProt Q9NP59 1-571)
T2 sequence (looked up): T1 sequence (looked up)

B1: Isovaleric Acid-E-T-H-[Dpa]-P-A-I-[Lys(IsoGlu_Palm)]-[bhPhe]-[(D)Lys]-NH2 (peptide)
peptide: Isovaleryl-ETH[Dip]PAIK([γGlu-Palmitoyl])[β3hF][dK]-NH2
SMILES: CCCCCCCCCCCCCCCC(=O)N[C@@H](CCC(=O)NCCCC[C@H](NC(=O)[C@@H](NC(=O)[C@H](C)NC(=O)[C@@H]1CCCN1C(=O)[C@@H](NC(=O)[C@H](Cc1c[nH]cn1)NC(=O)[C@@H](NC(=O)[C@H](CCC(=O)O)NC(=O)CC(C)C)[C@@H](C)O)C(c1ccccc1)c1ccccc1)[C@@H](C)CC)C(=O)N[C@H](CC(=O)N[C@H](CCCCN)C(N)=O)Cc1ccccc1)C(=O)O
B2: Isovaleric Acid-E-T-H-[Dpa]-P-A-I-[Lys(Ac)]-[bhPhe]-NH2 (peptide)
peptide: Isovaleryl-ETH[Dip]PAIK(Ac)[β3hF]-NH2
B3: Isovaleric Acid-E-T-H-F-P-A-I-[Lys(1Peg2_1Peg2_Ahx_C18_Diacid)]-F-E-P-R-S-K-G-A-K-NH2 (peptide)
peptide: Isovaleryl-ETHFPAIK([AEEA-AEEA-Ahx-C18 diacid])FEPRSKGAK-NH2
B4: Isovaleric Acid-E-T-H-[Dpa]-P-A-I-[Lys(1PEG2_1PEG2_IsoGlu_C18_Diacid)]-[bhPhe]-[(D)Lys]-NH2 (peptide)
peptide: Isovaleryl-ETH[Dip]PAIK([AEEA-AEEA-γGlu-C18 diacid])[β3hF][dK]-NH2
B5: Isovaleric Acid-E-T-H-[Dpa]-P-A-I-[Lys(2PEG11_Palm)]-[bhPhe]-NH2 (peptide)
peptide: Isovaleryl-ETH[Dip]PAIK([PEG11-Palmitoyl])[β3hF]-NH2
B6: [DiIsoAmylAmine_CH2_Acid]-T-H-[Dpa]-P-A-I-[Lys(Ahx_Palm)]-[bhPhe]-[(D)Lys]-NH2 (peptide)
peptide: DiIsoAmylAmine_CH2_Acid-TH[Dip]PAIK([Ahx-Palmitoyl])[β3hF][dK]-NH2
B7: Isovaleric Acid-E-T-H-F-P-A-I-[Lys(1PEG2_1PEG2_IsoGlu_C18_Diacid)]-F-E-P-R-S-K-G-A-K-NH2 (peptide)
peptide: Isovaleryl-ETHFPAIK([AEEA-AEEA-γGlu-C18 diacid])FEPRSKGAK-NH2
B8: Isovaleric Acid-[Tet1]-T-[(1Me)His]-[Dpa]-P-A-I-[(N-Me)Lys]-[bhPhe]-[Lys(Ahx_Palm)]-NH2 (peptide)
peptide: Isovaleryl-[Ala(1H-tetrazol-5-yl)]T[His(τ-Me)][Dip]PAI[NMeK][β3hF]K([Ahx-Palmitoyl])-NH2
SMILES: CCCCCCCCCCCCCCCC(=O)NCCCCCC(=O)NCCCC[C@H](NC(=O)C[C@H](Cc1ccccc1)NC(=O)[C@H](CCCCN)N(C)C(=O)[C@@H](NC(=O)[C@H](C)NC(=O)[C@@H]1CCCN1C(=O)[C@@H](NC(=O)[C@H](Cc1cn(C)cn1)NC(=O)[C@@H](NC(=O)[C@H](Cc1nnn[nH]1)NC(=O)CC(C)C)[C@@H](C)O)C(c1ccccc1)c1ccccc1)[C@@H](C)CC)C(N)=O
B9: Isovaleric Acid-K-T-H-[Dpa]-P-A-I-E-[bhPhe]-[Lys(Ahx_Palm)]-R-NH2; (K and E cyclized) (peptide)
peptide: XKTHXPAIEXXR
modifications: N-term Isovaleric Acid; Dpa4; bhPhe9; Lys(Ahx_Palm)10; C-term NH2; K and E cyclized (lactam)
B10: Isovaleric Acid-E-T-H-F-P-A-I-[Lys(IsoGlu_Palm)]-F-E-P-R-S-K-G-A-K-NH2 (peptide)
peptide: Isovaleryl-ETHFPAIK([γGlu-Palmitoyl])FEPRSKGAK-NH2
B11: Isovaleric Acid-E-T-H-[Dpa]-P-A-I-[(D)Lys]-[bhPhe]-[Lys(Ahx_Palm)]-[(D)Lys]-A-NH2 (peptide)
peptide: Isovaleryl-ETH[Dip]PAI[dK][β3hF]K([Ahx-Palmitoyl])[dK]A-NH2
SMILES: CCCCCCCCCCCCCCCC(=O)NCCCCCC(=O)NCCCC[C@H](NC(=O)C[C@H](Cc1ccccc1)NC(=O)[C@@H](CCCCN)NC(=O)[C@@H](NC(=O)[C@H](C)NC(=O)[C@@H]1CCCN1C(=O)[C@@H](NC(=O)[C@H](Cc1c[nH]cn1)NC(=O)[C@@H](NC(=O)[C@H](CCC(=O)O)NC(=O)CC(C)C)[C@@H](C)O)C(c1ccccc1)c1ccccc1)[C@@H](C)CC)C(=O)N[C@H](CCCCN)C(=O)N[C@@H](C)C(N)=O
B12: Isovaleric Acid-Dab-T-H-[Dpa]-P-A-I-E-[bhPhe]-[Lys(Ahx_Palm)]-R-NH2 (peptide)
peptide: XXTHXPAIEXXR
modifications: N-term Isovaleric Acid; Dab1; Dpa4; bhPhe9; Lys(Ahx_Palm)10; C-term NH2; cyclized Dab-E (lactam)
B13: Isovaleric Acid-Dab-T-H-[Dpa]-P-A-I-D-[bhPhe]-[Lys(Ahx_Palm)]-R-NH2 (peptide)
peptide: Isovaleryl-[Dab]TH[Dip]PAID[β3hF]K([Ahx-Palmitoyl])R-NH2
modifications: lactam 1-8
SMILES: CCCCCCCCCCCCCCCC(=O)NCCCCCC(=O)NCCCC[C@H](NC(=O)C[C@H](Cc1ccccc1)NC(=O)[C@@H]1CC(=O)NCC[C@H](NC(=O)CC(C)C)C(=O)N[C@@H]([C@@H](C)O)C(=O)N[C@@H](Cc2c[nH]cn2)C(=O)N[C@@H](C(c2ccccc2)c2ccccc2)C(=O)N2CCC[C@H]2C(=O)N[C@@H](C)C(=O)N[C@@H]([C@@H](C)CC)C(=O)N1)C(=O)N[C@@H](CCCNC(=N)N)C(N)=O
B14: Isovaleric Acid-E-T-H-[Dpa]-P-A-I-K-[Lys(Ahx_Palm)]-NH2 (peptide)
peptide: Isovaleryl-ETH[Dip]PAIKK([Ahx-Palmitoyl])-NH2
modifications: lactam 1-8 (inferred)
B15: Isovaleric Acid-E-T-H-[Dpa]-P-K-[Lys(Ahx_Palm)]-NH2 (peptide)
peptide: Isovaleryl-ETH[Dip]PKK([Ahx-Palmitoyl])-NH2
modifications: lactam 1-6 (inferred)
B16: Isovaleric Acid-Orn-T-H-[Dpa]-P-A-I-D-[bhPhe]-[Lys(Ahx_Palm)]-R-NH2 (peptide)
peptide: Isovaleryl-[Orn]TH[Dip]PAID[β3hF][Lys(Ahx_Palm)]R-NH2
modifications: lactam (positions not given here); not fully specified (bridges)
B17: Isovaleric Acid-Orn-T-H-[Dpa]-P-A-I-E-[bhPhe]-[Lys(Ahx_Palm)]-R-NH2 (peptide)
peptide: XXTHXPAIEXXR
modifications: N-term Isovaleric Acid; Orn1; Dpa4; bhPhe9; Lys(Ahx_Palm)10; C-term NH2; cyclized Orn-E (lactam)
B18: Isovaleric Acid-K-T-H-[Dpa]-P-I-E-[bhPhe]-[Lys(Ahx_Palm)]-NH2 (peptide)
peptide: Isovaleryl-KTH[Dip]PIE[β3hF]K([Ahx-Palmitoyl])-NH2
modifications: lactam 1-7
SMILES: CCCCCCCCCCCCCCCC(=O)NCCCCCC(=O)NCCCC[C@H](NC(=O)C[C@H](Cc1ccccc1)NC(=O)[C@@H]1CCC(=O)NCCCC[C@H](NC(=O)CC(C)C)C(=O)N[C@@H]([C@@H](C)O)C(=O)N[C@@H](Cc2c[nH]cn2)C(=O)N[C@@H](C(c2ccccc2)c2ccccc2)C(=O)N2CCC[C@H]2C(=O)N[C@@H]([C@@H](C)CC)C(=O)N1)C(N)=O
B19: Isovaleric Acid-E-T-H-[Dpa]-P-A-I-K-[bhPhe]-[Lys(Ahx_Palm)]-NH2 (peptide)
peptide: Isovaleryl-ETH[Dip]PAIK[β3hF]K([Ahx-Palmitoyl])-NH2
modifications: lactam 1-8
B20: Isovaleric Acid-Dap-T-H-[Dpa]-P-A-I-D-[bhPhe]-[Lys(Ahx_Palm)]-R-NH2 (peptide)
peptide: Isovaleryl-[Dap]TH[Dip]PAID[β3hF]K([Ahx-Palmitoyl])R-NH2
modifications: lactam 1-8
SMILES: CCCCCCCCCCCCCCCC(=O)NCCCCCC(=O)NCCCC[C@H](NC(=O)C[C@H](Cc1ccccc1)NC(=O)[C@@H]1CC(=O)NC[C@H](NC(=O)CC(C)C)C(=O)N[C@@H]([C@@H](C)O)C(=O)N[C@@H](Cc2c[nH]cn2)C(=O)N[C@@H](C(c2ccccc2)c2ccccc2)C(=O)N2CCC[C@H]2C(=O)N[C@@H](C)C(=O)N[C@@H]([C@@H](C)CC)C(=O)N1)C(=O)N[C@@H](CCCNC(=N)N)C(N)=O
B21: Isovaleric Acid-K-T-H-[Dpa]-P-A-I-E-[bhPhe]-NMe[Lys(Ahx_Palm)]-NH2 (peptide)
peptide: Isovaleryl-KTH[Dip]PAIE[β3hF][NMeK]([Ahx-Palmitoyl])-NH2
modifications: lactam 1-8
SMILES: CCCCCCCCCCCCCCCC(=O)NCCCCCC(=O)NCCCC[C@@H](C(N)=O)N(C)C(=O)C[C@H](Cc1ccccc1)NC(=O)[C@@H]1CCC(=O)NCCCC[C@H](NC(=O)CC(C)C)C(=O)N[C@@H]([C@@H](C)O)C(=O)N[C@@H](Cc2c[nH]cn2)C(=O)N[C@@H](C(c2ccccc2)c2ccccc2)C(=O)N2CCC[C@H]2C(=O)N[C@@H](C)C(=O)N[C@@H]([C@@H](C)CC)C(=O)N1
B22: Isovaleric Acid-E-T-H-[Dpa]-P-I-K-[bhPhe]-[Lys(Ahx_Palm)]-NH2 (peptide)
peptide: Isovaleryl-ETH[Dip]PIK[β3hF]K([Ahx-Palmitoyl])-NH2
modifications: lactam 1-7 (inferred)
B23: Isovaleric Acid-K-T-H-[Dpa]-P-A-I-D-[bhPhe]-[Lys(Ahx_Palm)]-R-NH2 (peptide)
peptide: Isovaleryl-KTH[Dip]PAID[β3hF]K([Ahx-Palmitoyl])R-NH2
modifications: lactam 1-8
SMILES: CCCCCCCCCCCCCCCC(=O)NCCCCCC(=O)NCCCC[C@H](NC(=O)C[C@H](Cc1ccccc1)NC(=O)[C@@H]1CC(=O)NCCCC[C@H](NC(=O)CC(C)C)C(=O)N[C@@H]([C@@H](C)O)C(=O)N[C@@H](Cc2c[nH]cn2)C(=O)N[C@@H](C(c2ccccc2)c2ccccc2)C(=O)N2CCC[C@H]2C(=O)N[C@@H](C)C(=O)N[C@@H]([C@@H](C)CC)C(=O)N1)C(=O)N[C@@H](CCCNC(=N)N)C(N)=O
B24: Isovaleric Acid-E-T-H-[Dpa]-P-K-[bhPhe]-[Lys(Ahx_Palm)]-NH2 (peptide)
peptide: XETHXPKXX
modifications: N-term Isovaleric Acid; Dpa4; bhPhe7; Lys(Ahx_Palm)8; C-term NH2; cyclized E-K (lactam)

Target: T1, human ferroportin (SLC40A1) fused in …
Test: cell-based or functional assay

FPN EC50 | Binder
314 nM | B1
175 nM | B2
588 nM | B3
429 nM | B4
44.5 nM | B5
25.9 nM | B6
2360 nM | B7
23.9 nM | B8
13.8 nM | B9
280 nM | B10
17.8 nM | B11

Target: T2, ferroportin endogenously expressed on …
Test: cell-based or functional assay

T47D MSA IC50 | Binder
13.3 nM | B1
5.53 nM | B12
355 nM | B2
261 nM | B3
131 nM | B13
65.8 nM | B4
10.6 nM | B14
144 nM | B15
1.88 nM | B5
35 nM | B16
5.77 nM | B17
52.9 nM | B6
996 nM | B18
2.14 nM | B19
3440 nM | B7
3.94 nM | B8
733 nM | B20
1.74 nM | B9
289 nM | B10
5.97 nM | B11
4.07 nM | B21
25.5 nM | B22
3.96 nM | B23
52.3 nM | B24
